# Patent publication US11312984B2, “High-purity steviol glycosides” (PURECIRCLE SDN BHD, priority 2013, dated 2022)
# B1: S115N06 C2: UDP-glucoronosyl/UDP-glucosyl transferase family protein, Arabidopsis lyrata subsp. lyrata, SEQ ID NO: 7 (protein, listed as Arabidopsis lyrata)
# chain: MDDKKEEVMHIAMFPWLAMGHLLPFLRLSKLLAQKGHKISFISTPRNILRLPKLPSNLSSSITFVSFPLPSISGLPPSSESSMDVPYNKQQSLKAAFDLLQPPLTEFLRLSSPDWIIYDYASHWLPSIAKELGISKAFFSLFNAATLCFMGPSSSLIEESRSTPEDFTVVPPWVPFKSTIVFRYHEVSRYVEKTDEDVTGVSDSVRFGYTIDGSDAVFVRSCPEFEPEWFSLLQDLYRKPVFPIGFLPPVIEDDDDDTTWVRIKEWLDKQRVNSVVYVSLGTEASLRREELTELALGLEKSETPFFWVLRNEPQIPDGFEERVKGRGMVHVGWVPQVKILSHESVGGFLTHCGWNSVVEGIGFGKVPIFLPVLNEQGLNTRLLQGKGLGVEVLRDERDGSFGSDSVADSVRLVMIDDAGEEIREKVKLMKGLFGNMDENIRYVDELVGFMRNDESSQLKEEEEEDDCSDDQSSEVSSETDEKELNLDLKEEKRRISVYKSLSSEFDDYVANEKMG
# B2: S115N01 A1: UDP-glucosyltransferase Os03g0702500, Oryza sativa Japonica Group, SEQ ID NO: 3 (protein, listed as Oryza sativa)
# chain: MDDAHSSQSPLHVVIFPWLAFGHLLPCLDLAERLAARGHRVSFVSTPRNLARLPPVRPELAELVDLVALPLPRVDGLPDGAEATSDVPFDKFELHRKAFDGLAAPFSAFLDTACAGGKRPDWVLADLMHHWVALASQERGVPCAMILPCSAAVVASSAPPTESSADQREAIVRSMGTAAPSFEAKRATEEFATEGASGVSIMTRYSLTLQRSKLVAMRSCPELEPGAFTILTRFYGKPVVPFGLLPPRPDGARGVSKNGKHDAIMQWLDAQPAKSVVYVALGSEAPMSADLLRELAHGLDLAGTRFLWAMRKPAGVDADSVLPAGFLGRTGERGLVTTRWAPQVSILAHAAVCAFLTHCGWGSVVEGLQFGHPLIMLPILGDQGPNARILEGRKLGVAVPRNDEDGSFDRGGVAGAVRAVVVEEEGKTFFANARKLQEIVADREREERCIDEFVQHLTSWNELKNNSDGQYP
# B3: S115N01 G2: UDP-glycosyltransferase, Avena strigosa, SEQ ID NO: 4 (protein, listed as Avena strigosa)
# chain: MAVKDEQQSPLHILLFPFLAPGHLIPIADMAALFASRGVRCTILTTPVNAAIIRSAVDRANDAFRGSDCPAIDISVVPFPDVGLPPGVENGNALTSPADRLKFFQAVAELREPFDRFLADNHPDAVVSDSFFHWSTDAAAEHGVPRLGFLGSSMFAGSCNESTLHNNPLETAADDPDALVSLPGLPHRVELRRSQMMDPKKRPDHWALLESVNAADQKSFGEVFNSFHELEPDYVEHYQTTLGRRTWLVGPVALASKDMAGRGSTSARSPDADSCLRWLDTKQPGSVVYVSFGTLIRFSPAELHELARGLDLSGKNFVWVLGRAGPDSSEWMPQGFADLITPRGDRGFIIRGWAPQMLILNHRALGGFVTHCGWNSTLESVSAGVPMVTWPRFADQFQNEKLIVEVLKVGVSIGAKDYGSGIENHDVIRGEVIAESIGKLMGSSEESDAIQRKAKDLGAEARSAVENGGSSYNDVGRLMDELMARRSSVKVGEDIIPTNDGL
# B4: UGTSL2: UGTSL2, GI_460410132, Solanum lycopersicum UDP-glucosyltransferase, SEQ ID NO: 9 (protein, listed as Solanum lycopersicum)
# chain: MATNLRVLMFPWLAYGHISPFLNIAKQLADRGFLIYLCSTRINLESIIKKIPEKYADSIHLIELQLPELPELPPHYHTTNGLPPHLNPTLHKALKMSKPNFSRILQNLKPDLLIYDVLQPWAEHVANEQNIPAGKLLTSCAAVFSYFFSFRKNPGVEFPFPAIHLPEVEKVKIREILAKEPEEGGRLDEGNKQMMLMCTSRTIEAKYIDYCTELCNWKVVPVGPPFQDLITNDADNKELIDWLGTKHENSTVFVSFGSEYFLSKEDMEEVAFALELSNVNFIWVARFPKGEERNLEDALPKGFLERIGERGRVLDKFAPQPRILNHPSTGGFISHCGWNSAMESIDFGVPIIAMPIHNDQPINAKLMVELGVAVEIVRDDDGKIHRGEIAETLKSVVTGETGEILRAKVREISKNLKSIRDEEMDAVAEELIQLCRNSNKSK
# B5: S115N05 A7: UGTSL, Solanum lycopersicum cyanidin-3-O-glucoside 2-O-glucuronosyltransferase-like, SEQ ID NO: 5 (protein, listed as Solanum lycopersicum)
# chain: MSPKLHKELFFHSLYKKTRSNHTMATLKVLMFPFLAYGHISPYLNVAKKLADRGFLIYFCSTPINLKSTIEKIPEKYADSIHLIELHLPELPQLPPHYHTTNGLPPNLNQVLQKALKMSKPNFSKILQNLKPDLVIYDILQRWAKHVANEQNIPAVKLLTSGAAVFSYFFNVLKKPGVEFPFPGIYLRKIEQVRLSEMMSKSDKEKELEDDDDDDDLLVDGNMQIMLMSTSRTIEAKYIDFCTALTNWKVVPVGPPVQDLITNDVDDMELIDWLGTKDENSTVFVSFGSEYFLSKEDMEEVAFALELSNVNFIWVARFPKGEERNLEDALPKGFLERIGERGRVLDKFAPQPRILNHPSTGGFISHCGWNSAMESIDFGVPIIAMPMHLDQPMNARLIVELGVAVEIVRDDDGKIHRGEIAETLKGVITGKTGEKLRAKVRDISKNLKTIRDEEMDAAAEELIQLCRNGN
# B6: S115N06 E1: hypothetical protein OsJ_04191, Oryza sativa Japonica Group, SEQ ID NO: 6 (protein, listed as Oryza sativa)
# chain: MHVVMLPWLAFGHILPFAEFAKRVARQGHRVTLFSTPRNTRRLIDVPPSLAGRIRVVDIPLPRVEHLPEHAEATIDLPSNDLRPYLRRAYDEAFSRELSRLLQETGPSRPDWVLADYAAYWAPAAASRHGVPCAFLSLFGAAALCFFGPAETLQGRGPYAKTEPAHLTAVPEYVPFPTTVAFRGNEARELFKPSLIPDESGVSESYRFSQSIEGCQLVAVRSNQEFEPEWLELLGELYQKPVIPIGMFPPPPPQDVAGHEETLRWLDRQEPNSVVYAAFGSEVKLTAEQLQRIALGLEASELPFIWAFRAPPDAGDGDGLPGGFKERVNGRGVVCRGWVPQVKFLAHASVGGFLTHAGWNSIAEGLANGVRLVLLPLMFEQGLNARQLAEKKVAVEVARDEDDGSFAANDIVDALRRVMVGEEGDEFGVKVKELAKVFGDDEVNDRYVRDFLKCLSEYKMQRQG
# Key:
# [1] = Sweetness of reb M compared to a 10% sucrose solution
# From the text: The high purity reb M obtained in this invention, having a molecular weight of 1291.29, a molecular formula of C56H90O33, CAS registry number 1220616-44-3, and the structure presented in FIG. 1, is in the form of a white and odorless powder. The compound is about 200 times sweeter than sugar when compared to a 10% sucrose solution.
# [2] = Catalytic test of in-vitro expressed UDP-glucosyltransferases, Rebaudioside A to Rebaudioside D (HPLC); assay type: biochemical; details: 0.5 mM Rebaudioside A, 30° C.; for Steviol glycoside conversion in reaction mixture, Reb A (Retention Time ~9.1 min): remaining substrate
# Description: The prepared expression medium mix was added to the plasmid solution and the solution was allowed to incubate at 30° C. for 3 hours while mixing the mixture every 45 minutes. 5 μL of the mixture was frozen whereas the remainder was used for the catalytic test for the conversion of Rebaudioside A to Rebaudioside D.
# (§1) 430 μL of a reaction mixture containing 0.5 mM Rebaudioside A, 3 mM MgCl2, 50 mM phosphate buffer (pH7.2) and 2.5 mM UDP-glucose was added to a 1.5 mL sterile microtube. 52 μL of the enzyme expression medium was added and the resulting mixture was allowed to react at 30° C. for 24 hours. 125 μL samples were taken after 2 hours, 16 hours and 24 hours and added to a 115 μL of 60% methanol and 10 μL of 2 N H2SO4. The quenched sample was centrifuged at 18,000 g for 2 minutes at RT. 200 μL was transferred to an HPLC vial and analyzed.
# The HPLC assay was performed as follows:
# as §1, with “to” for “to an”
# The HPLC assay was performed as described in EXAMPLE 20.
# [3] = Rubusoside conversion products with UGTSL, UGTSL2 and UGTLB by LC-MS; assay type: biochemical; details: reaction time UGTSL2 2 hrs, UGTLB 5 hrs, UGTSL 45 hrs
# Description: (§2) Conversion of stevioside with UGTSL and UGTSL2 was conducted in similar manner to Example 28, and the conversion of rubusoside with UGTSL and UGTSL2 was conducted similarly to Example 29. Conversions of rubusoside and stevioside with UGTLB was conducted similarly to Example 32.
# (§3) The reaction mixtures were analyzed by LCMS to determine all reaction products.
# [4] = Stevioside conversion products with UGTSL, UGTSL2 and UGTLB by LC-MS; assay type: biochemical; details: reaction time UGTSL2 2 hrs, UGTLB 2 hrs, UGTSL 22 hrs
# Description: as §2, §3
Molecule,times sweeter than sugar [1],"Steviol glycoside conversion in reaction mixture, Reb D (Retention Time ~5.8 min) [2] [% area]","Steviol glycoside conversion in reaction mixture, Reb UNK (Retention Time ~6.7 min) [2] [% area]","Steviol glycoside conversion in reaction mixture, Reb A (Retention Time ~9.1 min) [2] [% area]","Rubusoside conversion products, LC-MS peak area ratio: Reb D [3] [%]","Rubusoside conversion products, LC-MS peak area ratio: Reb E [3] [%]","Rubusoside conversion products, LC-MS peak area ratio: Rub [3] [%]","Rubusoside conversion products, LC-MS peak area ratio: Stev [3] [%]","Stevioside conversion products, LC-MS peak area ratio: Reb D [4] [%]","Stevioside conversion products, LC-MS peak area ratio: Reb E [4] [%]","Stevioside conversion products, LC-MS peak area ratio: Stev [4] [%]"
"C=C1C[C@@]23CC[C@H]4[C@@](C)(CCC[C@@]4(C)C(=O)O[C@@H]4O[C@H](CO)[C@@H](O)[C@H](O[C@@H]5O[C@H](CO)[C@@H](O)[C@H](O)[C@H]5O)[C@H]4O[C@@H]4O[C@H](CO)[C@@H](O)[C@H](O)[C@H]4O)[C@@H]2CC[C@]1(O[C@@H]1O[C@H](CO)[C@@H](O)[C@H](O[C@@H]2O[C@H](CO)[C@@H](O)[C@H](O)[C@H]2O)[C@H]1O[C@@H]1O[C@H](CO)[C@@H](O)[C@H](O)[C@H]1O)C3 [reb M, rebaudioside M]",about 200 times,,,,,,,,,,
B1,,0.28,3.9,95.8,,,,,,,
B2,,2.1,,96.7,,,,,,,
B3,,0.6,,99.4,,,,,,,
B4,,,,,6.73,52.88,3.54,2.12,1.70,42.56,20.01
B5,,,23.3,46.7,3.45,35.88,7.82,2.37,0.54,49.68,25.24
B6,,0.14,7.0,92.8,,,,,,,
